Source: publication PMC5667506, “Potent and selective inhibition of SH3 domains with dirhodium metalloinhibitors” (Chemical Science, 2015)
“Also recorded” adds a separate entry of the source. Read-outs that look alike come from different tables or passages of the source. Each block holds one molecule with its values, some of them ahead of it. Rh2(OAc)3 = dirhodium(II) triacetate, bound to the side-chain carboxylate

What was measured:
Hck SH3 domain = target: T1, Hck SH3 domain (Homo sapiens, UniProt P08631); experiment: ITC binding to Hck SH3 domain (two-sets-of-sites fit); settings: 25 °C, high affinity specific site
T1 construct: The hck SH3 domain was amplified by PCR using Phusion DNA polymerase; GST (N, cleaved yes); made in house; host or cells: E. coli BL21 (DE3)
T1 sequence (P08631 77-139): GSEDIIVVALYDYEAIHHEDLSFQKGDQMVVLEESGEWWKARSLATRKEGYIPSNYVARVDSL
Experimental: (§1) All chemical reagents were purchased from Sigma-Aldrich and were used without further purification.
(§2) Peptide synthesis. All peptides were synthesized manually or with an AAPPTEC APEX 396 Automated Multipeptide Synthesizer using standard solid-phase Fmoc protocols.1,2 Peptides were prepared as C-terminal amides using Rink amide MBHA resin (AAPPTEC) and were acetylated at the N-terminus prior to cleavage from the resin. Peptides and metallopeptides were purified by reverse-phase HPLC.
(§3) HPLC separation. Reverse-phase HPLC was performed on a Shimadzu CBM-20A instrument with Phenomenex Jupiter 4μ Proteo 90A (250 × 15 mm preparative) and Phenomenex Jupiter 4μ Proteo 90A (250 × 4.6 mm analytical) columns. The columns were eluted with a gradient of acetonitrile in water (10-90%) (flow rates of 8 mL/min and 1 mL/min for preparative and analytical columns, respectively). Trifluoroacetic acid (0.1%) was added to all eluents. […]
(§4) ITC analysis. ITC experiments were carried out on a VP-ITC instrument (MicroCal) at 25 °C. Titrations of 275 μM peptide into 18 μM SH3 domain proteins were used for all titrations, except for the titration of S2ERh into Lyn SH3 domain, where the lower concentrations of 69 µM S2ERh peptide and 4 µM Lyn SH3 were used to attain a c-value for the titration within the accepted limts for ITC experiments ([…]).3
(§5) Heats of dilutions were measured independently for each experiment by titrating 275 μM peptide into buffer (20 mM phosphate buffer, pH 7, 150 mM NaCl, 1 mM EDTA). All experimental data were fitted using a one set of sites binding model in Origin software (MicroCal) except for the data with Hck SH3 domain. With Hck only, the non-peptide specific binding of dirhodium tetraacetate to Hck SH3 domain could not be treated as negligible, despite the very weak interaction (88 µM), due to the larger enthalpy contribution observed for non-specific binding to this SH3 domain, so the titrations of peptide into Hck were fitted using a 2 set of sites binding model where the stoichiometry for the second set of sites was fixed at 2.0. […]
(§6) Mass spectrometry. ESI-MS was performed on a Bruker Daltonics micrOTOF instrument.
Known compounds and proteins. Several metallopeptides (S2ERh, L3ERh, R5ERh, and 13DRh) were reported previously and were prepared by known protocols;4 alkyne-diazo 3,5 3-azido-7-hydroxycoumarin6 were synthesized following reported procedures; fyn, yes, lck, and src SH3 protein domains were prepared following published procedures.5 Abl, hck, and lyn SH3 domain plasmids were adapted from the previously reported genes;7 the gene templates were obtained from Addgene, ID […]
Table S1. Table of the thermodynamic parameters for binding of metallopeptides to SH3 domains, determined by isothermal […]
Protein Peptide Stoichiometry Kd ΔH -TΔS ΔG
(nM) (kcal mol-1) (kcal mol-1) (kcal mol-1)
* The binding isotherms for metallopeptide interactions with Hck were fitted using a two -sets-of-sites model with the stoichiometry for the second set of sites fixed to 2.0. The second set of binding sites was used to account for the weak, but not negligable, binding of the peptide to another surface of Hck SH3 domain, presumably through non-specific interactions of the dirhodium tetraacetate group. The thermodynamics for the high affinity specific binding site interaction are provided in this

[1] = target: T2, Full-length Lyn kinase (GST-tagged Lyn B) (Homo sapiens, UniProt P07948); experiment: Lyn kinase activation assay (ADP-Glo Kinase Assay); format: biochemical; settings: 74 nM Lyn, 5 min
T2 construct: Full-length Lyn kinase (74 nM) was treated with substrate peptide and ATP; purchased Promega
T2 sequence (P07948 1-491 isoform P07948-2): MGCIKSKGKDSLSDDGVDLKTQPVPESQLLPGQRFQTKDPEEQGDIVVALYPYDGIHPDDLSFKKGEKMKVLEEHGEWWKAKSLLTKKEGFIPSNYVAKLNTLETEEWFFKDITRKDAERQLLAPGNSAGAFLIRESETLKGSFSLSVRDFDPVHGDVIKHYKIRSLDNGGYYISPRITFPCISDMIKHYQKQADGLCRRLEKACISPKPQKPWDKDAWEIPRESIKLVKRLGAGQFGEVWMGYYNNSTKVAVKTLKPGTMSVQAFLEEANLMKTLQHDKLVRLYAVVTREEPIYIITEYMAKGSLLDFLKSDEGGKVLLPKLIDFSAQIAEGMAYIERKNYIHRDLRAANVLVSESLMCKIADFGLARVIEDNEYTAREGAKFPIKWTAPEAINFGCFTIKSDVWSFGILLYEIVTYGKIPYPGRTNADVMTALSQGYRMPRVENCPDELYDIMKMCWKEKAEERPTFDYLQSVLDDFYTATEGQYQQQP
Experimental: We examined phosphorylation of a peptide substrate at low enzyme concentration (0.074 μM) and short reaction time (t = 5 min) to minimize the alternative autophosphorylation activation pathway (Fig. 6). Kinase activation with traditional ligands has typically required high ligand concentrations (∼1 mM) to overcome the intramolecular nature of the SH3–kinase domain interaction.
Fig. 6 Activation of Lyn kinase activity by a metallopeptide, S2E^Rh, and the parent peptide, S2E. […] Full-length Lyn kinase (74 nM) was treated with substrate peptide and ATP. Kinase activity was measured after 5 min in an adaptation of reported methods.[5] See ESI ^† for details.
(§7) All chemical reagents were purchased from Sigma-Aldrich and were used without further purification. […]
Kinase assay. ATP turnover by Lyn was measured using the ADP-GloTM Kinase Assay (Promega) according to the manufacturer’s protocol. Briefly, final concentrations of 72 μM ATP, 74 nM Lyn (GST-tagged Lyn B), and 240 μM substrate peptide (all from Promega) were combined in buffer (40 mM Tris, 50 μM dithiothreitol, 2 mM MnCl2 and 0.1 mg/mL BSA at pH 7.5) with a solution of the desired treatment (or control) in the same buffer for a final reaction volume of 5 µL. The kinase reaction was allowed to proceed at room temp. for 5 min from addition of ATP before the start of the ADP-Glo protocol halted the reaction. Chemiluminescence data were acquired on a Tecan Infinite M1000 microplate reader in white 384 well low volume plates (Corning Costar 3674) with an integration time of 250 ms per well. […]

Lyn SH3 domain = target: T3, Lyn SH3 domain (Homo sapiens, UniProt P07948); experiment: ITC binding of metallopeptides to Lyn SH3 domain; settings: 25 °C
T3 construct: The lyn SH3 domain was amplified by PCR using Phusion DNA polymerase; GST (N, cleaved yes); made in house; host or cells: E. coli BL21 (DE3)
T3 sequence (P07948 62-121): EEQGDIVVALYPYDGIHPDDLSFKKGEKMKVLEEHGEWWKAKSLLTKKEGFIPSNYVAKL
From the text: The His96 is unique among Src-family sequences, and the His78 appears only in Hck and Lck. Individual amino-acid alterations are the only factors that might distinguish the nearly identical secondary structures and peptide-binding preferences of Src-family SH3 domains (cf. Fig. 1a and b). Based on a Src-family SH3-binding sequence (VSL12),[37] known to bind with similar affinity across Src-family SH3 domains,[38] we made metallopeptides with rhodium in different sites near the beginning of the SH3-binding peptide. […] The optimal metallopeptide, S2E^Rh, bound to Lyn with 6 nM affinity. The accuracy of ITC data is reduced for C values >1000 (C = [protein]/K d). Under these conditions the distribution of data points on the isotherm reduces the precision of the global fit. Since the enthalpic contributions to binding in the formation of the complexes described in this work were high, we were able to use a low protein concentration (4 μM) which ensured that our C values were well below this upper range. […] In broad terms, the thermodynamics—favourable enthalpy and unfavourable entropy—are consistent with previous examinations of peptide–SH3 binding (see Table S1 ^† for thermodynamic data).[39] Moving the location of the rhodium center toward the N-terminus, away from the histidine, led to a drop in binding affinity. The N13D^Rh metallopeptide, a convenient negative control with the rhodium center too far for histidine interactions, binds with micromolar activity, similar to simple SH3 binding of the parent peptide. We conclude that the vast affinity improvement is due to rhodium coordination to unique histidine residue(s).
as §1, §2, §3, §4, §5, §6
Known compounds and proteins. Several metallopeptides (S2ERh, L3ERh, R5ERh, and 13DRh) were reported previously and […]

Abl SH3 domain = target: T4, Abl SH3 domain (Homo sapiens, UniProt P00519); experiment: ITC binding to Abl SH3 domain; settings: for -TΔS / ΔG / ΔH / Kd: 25 °C
T4 construct: The abl SH3 domain was amplified by PCR using Phusion DNA polymerase; GST (N, cleaved yes); made in house; host or cells: E. coli BL21 (DE3)
T4 sequence (P00519 60-121): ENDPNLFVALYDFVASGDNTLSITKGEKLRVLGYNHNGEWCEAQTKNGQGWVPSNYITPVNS
Experimental: as §1, §2
(§8) HPLC separation. Reverse-phase HPLC was performed on a Shimadzu CBM-20A instrument with Phenomenex Jupiter 4μ Proteo 90A (250 × 15 mm preparative) and Phenomenex Jupiter 4μ Proteo 90A (250 × 4.6 mm analytical) columns. The columns were eluted with a gradient of acetonitrile in water (10-90%) (flow rates of 8 mL/min and 1 mL/min for preparative and analytical columns, respectively). Trifluoroacetic acid (0.1%) was added to all eluents.
(§9) FPLC separation. Analytical FPLC was performed on an ÄKTA instrument with Superdex Peptide PE 7.5/300 column. The column was equilibrated with buffer (150 mM NaCl, 50 mM Tris, pH 7.0) at flow rate of 0.2 mL/min.
as §4, §5, §6
(§10) Known compounds and proteins. Several metallopeptides (S2ERh, L3ERh, R5ERh, and 13DRh) were reported previously and were prepared by known protocols;4 alkyne-diazo 3,5 3-azido-7-hydroxycoumarin6 were synthesized following reported procedures; fyn, yes, lck, and src SH3 protein domains were prepared following published procedures.5 Abl, hck, and lyn SH3 domain plasmids were adapted from the previously reported genes;7 the gene templates were obtained from Addgene, ID

Abl = target: Abl; design: method as in PMID 8718852; settings: read-out: affinity for Abl; cited from earlier work
Yes SH3 domain = target: T5, Yes SH3 domain (Homo sapiens, UniProt P07947); experiment: ITC binding to Yes SH3 domain
T5 construct: fyn, yes, lck, and src SH3 protein domains were prepared following published procedures; made in house
T5 sequence (P07947 91-152 limits assumed): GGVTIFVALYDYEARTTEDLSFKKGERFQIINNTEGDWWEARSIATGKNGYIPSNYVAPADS
Experimental: as §1, §2, §8, §9, §4, §5, §6, §10

Lck SH3 domain = target: T6, Lck SH3 domain (Homo sapiens, UniProt P06239); experiment: ITC binding to Lck SH3 domain; settings: 25 °C
T6 construct: fyn, yes, lck, and src SH3 protein domains were prepared following published procedures; made in house
T6 sequence (P06239 61-121 limits assumed): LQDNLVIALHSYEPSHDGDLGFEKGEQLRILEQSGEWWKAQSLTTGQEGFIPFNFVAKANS
Experimental: as §7, §4, §5
Known compounds and proteins. […]

[2] = Yes SH3, ITC, 25 °C, read-out: SH3 Kd

-TΔS (Hck SH3 domain): -1.0 kcal/mol
Kd (Hck SH3 domain): 89000 nM
ΔG (Hck SH3 domain): -5.5 kcal/mol
ΔH (Hck SH3 domain): -4.5 kcal/mol
-TΔS (Lyn SH3 domain): 1.0 kcal/mol
Kd (Lyn SH3 domain): 150000 nM
ΔG (Lyn SH3 domain): -5.2 kcal/mol
ΔH (Lyn SH3 domain): -6.3 kcal/mol
Molecule: CC(=O)[O-].CC(=O)[O-].CC(=O)[O-].CC(=O)[O-].[Rh+2].[Rh+2] [Rh2(OAc)4, reference compound]
Lyn kinase activation [1]: no activation; also recorded: had no effect on kinase activity

Stoichiometry (Abl SH3 domain): 1.2
-TΔS (Abl SH3 domain): 5.3 kcal/mol
ΔG (Abl SH3 domain): -7.0 kcal/mol
ΔH (Abl SH3 domain): -12.3 kcal/mol
Molecule: APTE^RhSPPPPP [p40-Y4E^Rh]

Molecule: APTYSPPPPP [p40]
Kd (Abl): 400 nM

Kd (Abl SH3 domain): 22 nM
Molecule: E^RhPTYSPPPPP (Ac-E(Rh2(OAc)3)PTYSPPPPP-NH2; also: metal complex: Glu1 carboxylate bound to dirhodium(II) triacetate) [p40-A1E^Rh]

Stoichiometry (Abl SH3 domain): 1.0
-TΔS (Abl SH3 domain): 8.9 kcal/mol
ΔG (Abl SH3 domain): -10.5 kcal/mol
ΔH (Abl SH3 domain): -19.4 kcal/mol
Molecule: E^RhPTYSPPPPP [p40-A1E^Rh]

Kd (Hck SH3 domain): 52 nM
Kd (Hck SH3 domain; listed as L3ERh): 22 nM
Kd (Yes SH3 domain; [2]): 3740 nM
Kd (Lyn SH3 domain): 30 nM
Molecule: L3E^Rh: rhodium(II) metallopeptide based on Src-family SH3-binding sequence (VSL12), rhodium at residue 3 (VSEARRPLPPLPN; N-terminal acetyl, C-terminal amide)

Kd (Hck SH3 domain): 544 nM
Kd (Yes SH3 domain; Yes SH3, ITC, 25 °C, listed as N13DRh, read-out: SH3 Kd): 238 nM
Kd (Yes SH3 domain; [2]): 301 nM
Kd (Yes SH3 domain; Yes SH3, unit inferred, read-out: Affinity of designed rhodium(II) metallopeptides (Fig. 1d)): 299 nM
Kd (Lck SH3 domain): 239 nM
Kd (Abl SH3 domain): 8850 nM
Kd (Lyn SH3 domain): 1200 nM
Molecule: N13D^Rh: negative control metallopeptide with the rhodium center too far for histidine interactions (VSLARRPLPPLPD; N-terminal acetyl, C-terminal amide)

Kd (Hck SH3 domain): 2320 nM
Kd (Lck SH3 domain): 79 nM
Molecule: P12D^Rh: metallopeptide with the rhodium core moved to the 12th residue (VSLARRPLPPLDN; N-terminal acetyl, C-terminal amide)

Kd (Yes SH3 domain; [2]): 1740 nM
Kd (Lyn SH3 domain): 81 nM
Molecule: R5E^Rh: rhodium(II) metallopeptide based on Src-family SH3-binding sequence (VSL12), rhodium at residue 5; catalyst for Yes SH3 modification (VSLAERPLPPLPN; N-terminal acetyl, C-terminal amide)

Kd (Hck SH3 domain): 51 nM
Kd (Lck SH3 domain): 3790 nM
Kd (Lyn SH3 domain): 152 nM
Molecule: R6E^Rh: rhodium(II) metallopeptide based on Src-family SH3-binding sequence (VSL12), rhodium at residue 6 (VSLAREPLPPLPN; N-terminal acetyl, C-terminal amide)
